Here are results for one substance from US20210100858A1.

The assay addresses Epidermal growth factor receptor (EGFR) on HT29 human colon adenocarcinoma cells (human) (UniProt P00533). As to the kind of experiment: cell-based or functional assay.

“Hi-D::EGF phage (λF7 phage with maximal EGF surface decoration, generated using SupD E. coli host at 37° C.) (from UniProt P03712 1-110)”: the EOP of phage recovered from HT29 spheroids, intercellular, 30 min was 0.00156 EOP; the EOP of phage recovered from HT29 spheroids, intercellular, 4 h is 0.0572 EOP; the EOP of phage recovered from HT29 spheroids, intercellular, 8 h turned out to be 0.0183 EOP; the EOP of phage recovered from HT29 spheroids, intercellular, 24 h came out at 0.0113 EOP. The substance also displayed an EOP of phage recovered from lysed HT29 cells, intracellular, 30 min of 0.00013 EOP; an EOP of phage recovered from lysed HT29 cells, intracellular, 4 h of 0.00392 EOP; an EOP of phage recovered from lysed HT29 cells, intracellular, 8 h of 0.00147 EOP; an EOP of phage recovered from lysed HT29 cells, intracellular, 24 h of 0.000312 EOP. The same substance had an HT29 spheroid diameter on day 20, 10^4 PFU phage of 1330 µm; an HT29 spheroid diameter on day 20, 10^8 PFU phage of 422 µm; a recovery of phage particles from the interstitial spaces and within cells at 30 min, against wildtype phages of 150 fold; a size of HT29 spheroids on day 20 against control spheroids, high concentration of phage of 3 fold.
